Earlier results as cited in paper PMC6679882.

Biological target: IL-18BP (Homo sapiens) (UniProt O95998)
Sequence (O95998 31-194): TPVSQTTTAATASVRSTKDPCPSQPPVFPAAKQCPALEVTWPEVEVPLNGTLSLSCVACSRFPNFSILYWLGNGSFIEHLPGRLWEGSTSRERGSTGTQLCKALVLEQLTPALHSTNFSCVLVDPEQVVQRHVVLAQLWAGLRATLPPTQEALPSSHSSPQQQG

Sequence of IL-18 (Q14116 37-193): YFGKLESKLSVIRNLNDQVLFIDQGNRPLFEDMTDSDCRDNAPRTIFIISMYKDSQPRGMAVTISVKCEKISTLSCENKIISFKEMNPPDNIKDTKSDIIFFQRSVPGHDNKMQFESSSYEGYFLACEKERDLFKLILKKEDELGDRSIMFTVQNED

For IL-18 (from UniProt Q14116), the Kd is listed as 0.4 nM.
